# Experimental data taken from IntAct's records for PubMed 22981988.
# B1: Arfaptin-1 (Homo sapiens), P53367 (parent)
# chain: MAQESPKNSAAEIPVTSNGEVDDSREHSFNRDLKHSLPSGLGLSETQITSHGFDNTKEGVIEAGAFQGSPAPPLPSVMSPSRVAASRLAQQGSDLIVPAGGQRTQTKSGPVILADEIKNPAMEKLELVRKWSLNTYKCTRQIISEKLGRGSRTVDLELEAQIDILRDNKKKYENILKLAQTLSTQLFQMVHTQRQLGDAFADLSLKSLELHEEFGYNADTQKLLAKNGETLLGAINFFIASVNTLVNKTIEDTLMTVKQYESARIEYDAYRTDLEELNLGPRDANTLPKIEQSQHLFQAHKEKYDKMRNDVSVKLKFLEENKVKVLHNQLVLFHNAIAAYFAGNQKQLEQTLKQFHIKLKTPGVDAPSWLEEQ
# partner: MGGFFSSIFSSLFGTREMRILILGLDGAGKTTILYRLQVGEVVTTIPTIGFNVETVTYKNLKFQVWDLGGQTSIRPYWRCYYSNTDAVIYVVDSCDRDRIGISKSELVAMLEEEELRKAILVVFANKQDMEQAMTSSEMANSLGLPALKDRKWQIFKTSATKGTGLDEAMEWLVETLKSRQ
# B2: Arfaptin-1 (Homo sapiens), P53367 (parent)
# chain: B1 chain
# Variants of: B1
# Conditions: with arl1_human ARL1, P40616
row,effect of a mutation on the interaction,Variant
1,disrupting interaction strength,MAQESPKNSAAEIPVTSNGEVDDSREHSFNRDLKHSLPSGLGLSETQITSHGFDNTKEGVIEAGAFQGSPAPPLPSVMSPSRVAASRLAQQGSDLIVPAGGQRTQTKSGPVILADEIKNPAMEKLELVRKWDLNTYKCTRQIISEKLGRGSRTVDLELEAQIDILRDNKKKYENILKLAQTLSTQLFQMVHTQRQLGDAFADLSLKSLELHEEFGYNADTQKLLAKNGETLLGAINFFIASVNTLVNKTIEDTLMTVKQYESARIEYDAYRTDLEELNLGPRDANTLPKIEQSQHLFQAHKEKYDKMRNDVSVKLKFLEENKVKVLHNQLVLFHNAIAAYFAGNQKQLEQTLKQFHIKLKTPGVDAPSWLEEQ [S132D]
2,with no effect,MAQESPKNSAAEIPVTSNGEVDDSREHSFNRDLKHSLPSGLGLSETQITSHGFDNTKEGVIEAGAFQGSPAPPLPSVMSPSRVAASRLAQQGSDLIVPAGGQRTQTKSGPVILADEIKNPAMEKLELVRKWALNTYKCTRQIISEKLGRGSRTVDLELEAQIDILRDNKKKYENILKLAQTLSTQLFQMVHTQRQLGDAFADLSLKSLELHEEFGYNADTQKLLAKNGETLLGAINFFIASVNTLVNKTIEDTLMTVKQYESARIEYDAYRTDLEELNLGPRDANTLPKIEQSQHLFQAHKEKYDKMRNDVSVKLKFLEENKVKVLHNQLVLFHNAIAAYFAGNQKQLEQTLKQFHIKLKTPGVDAPSWLEEQ [S132A]

# Variants of: B2
# Conditions: with arf1_human ARF1, P84077
# arf1_human ARF1, P84077, sequence (P84077 whole entry): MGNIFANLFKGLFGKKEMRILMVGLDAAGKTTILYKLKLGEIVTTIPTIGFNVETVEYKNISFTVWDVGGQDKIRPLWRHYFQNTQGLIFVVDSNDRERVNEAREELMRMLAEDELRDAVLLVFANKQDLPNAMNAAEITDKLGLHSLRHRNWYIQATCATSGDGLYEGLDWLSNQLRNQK
row,effect of a mutation on the interaction,Variant
1,with no effect,MAQESPKNSAAEIPVTSNGEVDDSREHSFNRDLKHSLPSGLGLSETQITSHGFDNTKEGVIEAGAFQGSPAPPLPSVMSPSRVAASRLAQQGSDLIVPAGGQRTQTKSGPVILADEIKNPAMEKLELVRKWALNTYKCTRQIISEKLGRGSRTVDLELEAQIDILRDNKKKYENILKLAQTLSTQLFQMVHTQRQLGDAFADLSLKSLELHEEFGYNADTQKLLAKNGETLLGAINFFIASVNTLVNKTIEDTLMTVKQYESARIEYDAYRTDLEELNLGPRDANTLPKIEQSQHLFQAHKEKYDKMRNDVSVKLKFLEENKVKVLHNQLVLFHNAIAAYFAGNQKQLEQTLKQFHIKLKTPGVDAPSWLEEQ [S132A]

# Variants of: B2
# Conditions: with arf3_human ARF3, P61204
# arf3_human ARF3, P61204, sequence (P61204 whole entry): as the sequence (P84077 whole entry) above, with A6G, F9L, G11S, F13I, S174A, R178K, Q180K counted along it
row,effect of a mutation on the interaction,Variant
1,with no effect,MAQESPKNSAAEIPVTSNGEVDDSREHSFNRDLKHSLPSGLGLSETQITSHGFDNTKEGVIEAGAFQGSPAPPLPSVMSPSRVAASRLAQQGSDLIVPAGGQRTQTKSGPVILADEIKNPAMEKLELVRKWALNTYKCTRQIISEKLGRGSRTVDLELEAQIDILRDNKKKYENILKLAQTLSTQLFQMVHTQRQLGDAFADLSLKSLELHEEFGYNADTQKLLAKNGETLLGAINFFIASVNTLVNKTIEDTLMTVKQYESARIEYDAYRTDLEELNLGPRDANTLPKIEQSQHLFQAHKEKYDKMRNDVSVKLKFLEENKVKVLHNQLVLFHNAIAAYFAGNQKQLEQTLKQFHIKLKTPGVDAPSWLEEQ [S132A]
2,disrupting interaction strength,MAQESPKNSAAEIPVTSNGEVDDSREHSFNRDLKHSLPSGLGLSETQITSHGFDNTKEGVIEAGAFQGSPAPPLPSVMSPSRVAASRLAQQGSDLIVPAGGQRTQTKSGPVILADEIKNPAMEKLELVRKWDLNTYKCTRQIISEKLGRGSRTVDLELEAQIDILRDNKKKYENILKLAQTLSTQLFQMVHTQRQLGDAFADLSLKSLELHEEFGYNADTQKLLAKNGETLLGAINFFIASVNTLVNKTIEDTLMTVKQYESARIEYDAYRTDLEELNLGPRDANTLPKIEQSQHLFQAHKEKYDKMRNDVSVKLKFLEENKVKVLHNQLVLFHNAIAAYFAGNQKQLEQTLKQFHIKLKTPGVDAPSWLEEQ [S132D]

# Variants of: B2
# Conditions: with arf1_human ARF1, P84077
# Remark: another data set of the same source
row,effect of a mutation on the interaction,Variant
1,disrupting interaction strength,MAQESPKNSAAEIPVTSNGEVDDSREHSFNRDLKHSLPSGLGLSETQITSHGFDNTKEGVIEAGAFQGSPAPPLPSVMSPSRVAASRLAQQGSDLIVPAGGQRTQTKSGPVILADEIKNPAMEKLELVRKWDLNTYKCTRQIISEKLGRGSRTVDLELEAQIDILRDNKKKYENILKLAQTLSTQLFQMVHTQRQLGDAFADLSLKSLELHEEFGYNADTQKLLAKNGETLLGAINFFIASVNTLVNKTIEDTLMTVKQYESARIEYDAYRTDLEELNLGPRDANTLPKIEQSQHLFQAHKEKYDKMRNDVSVKLKFLEENKVKVLHNQLVLFHNAIAAYFAGNQKQLEQTLKQFHIKLKTPGVDAPSWLEEQ [S132D]
